Experimental data as given in publication PMC7082078 (Cell reports, 2020).

Key:
Assay in all cases: AUC
[1] = molecular target: human pcdh10 EC5–EC6 fragment (human)
[2] = molecular target: human pcdh17 full ectodomain (EC1–EC6) (human)
[3] = molecular target: mouse pcdh7 full ectodomain (EC1–EC7) (mouse)
[4] = molecular target: human pcdh9 EC1–EC4 fragment (human)
[5] = molecular target: human pcdh10 full ectodomain (EC1–EC6) (human)
[6] = molecular target: Xenopus pcdh8.1 full ectodomain (EC1–EC6) (Xenopus)
[7] = molecular target: human pcdh10 EC1–EC4 fragment (human)
[8] = molecular target: mouse pcdh7 EC1–EC4 fragment (mouse)
[9] = molecular target: human pcdh18 full ectodomain (EC1–EC6) (human)
[10] = molecular target: human pcdh12 full ectodomain fragment (EC1–EC6) (human)
[11] = molecular target: human pcdh11Y full ectodomain (EC1–EC7) (human)
[12] = molecular target: human pcdh7 EC1–EC4 fragment (human)
[13] = molecular target: Xenopus pcdh8.2 (PAPC) full ectodomain (EC1–EC6) (Xenopus)
[14] = molecular target: human pcdh10 EC1–EC3 fragment (human)
[15] = molecular target: human pcdh8 EC5–EC6 fragment (human)
[16] = molecular target: the molecule itself

For “human pcdh10 EC5–EC6 fragment (domain or fragment)”, the Kd [1] was > 1 mM.

“human pcdh17 full ectodomain (EC1–EC6) (domain or fragment)” was tested, and the Kd [2] was 4.8 µM and the stoichiometry N [2] was 2.

Molecule “mouse pcdh7 full ectodomain (EC1–EC7) (domain or fragment)” has a Kd [3] of 8.2 µM and a stoichiometry N [3] of 2.

“human pcdh9 EC1–EC4 fragment (domain or fragment)” gave a Kd [4] of 2000 nM and a stoichiometry N [4] of 2.

For “human pcdh10 full ectodomain (EC1–EC6) (domain or fragment)”, the Kd [5] was 3.6 µM and the stoichiometry N [5] was 2.

Work on “Xenopus pcdh8.1 full ectodomain (EC1–EC6) (domain or fragment)” yielded a Kd [6] of 3.5 µM and a stoichiometry N [6] of 2.

In the case of “human pcdh10 EC1–EC4 fragment (domain or fragment)”, the Kd [7] is reported as 680 nM and the stoichiometry N [7] is reported as 2.

For “mouse pcdh7 EC1–EC4 fragment (domain or fragment)”, the Kd [8] was 4.1 µM and the stoichiometry N [8] was 2.

In the case of “human pcdh18 full ectodomain (EC1–EC6) (domain or fragment)”, the Kd [9] is reported as 2700 nM and the stoichiometry N [9] is reported as 2.

“human pcdh12 full ectodomain fragment (EC1–EC6) (domain or fragment)” gave a stoichiometry N [10] of 2.

With “human pcdh11Y full ectodomain (EC1–EC7) (domain or fragment)” the Kd [11] was 7.8 µM and the stoichiometry N [11] was 2.

“human pcdh7 EC1–EC4 fragment (domain or fragment)” gave a Kd [12] of 2700 nM and a stoichiometry N [12] of 2.

Work on “Xenopus pcdh8.2 (PAPC) full ectodomain (EC1–EC6) (domain or fragment)” yielded a stoichiometry N [13] of 2.

For “human pcdh10 EC1–EC3 fragment (domain or fragment)”, the Kd [14] was 280 µM and the stoichiometry N [14] was 2.

For “human pcdh8 EC5–EC6 fragment (domain or fragment)”, the Kd [15] was > 1 mM.

B1: human pcdh1 full ectodomain (EC1–EC7) (domain or fragment)
chain: TRVVYKVPEEQPPNTLIGSLAADYGFPDVGHLYKLEVGAPYLRVDGKTGDIFTTETSIDREGLRECQNQLPGDPCILEFEVSITDLVQNGSPRLLEGQIEVQDINDNTPNFASPVITLAIPENTNIGSLFPIPLASDRDAGPNGVASYELQAGPEAQELFGLQVAEDQEEKQPQLIVMGNLDRERWDSYDLTIKVQDGGSPPRASSALLRVTVLDTNDNAPKFERPSYEAELSENSPIGHSVIQVKANDSDQGANAEIEYTFHQAPEVVRRLLRLDRNTGLITVQGPVDREDLSTLRFSVLAKDRGTNPKSARAQVVVTVKDMNDNAPTIEIRGIGLVTHQDGMANISEDVAEETAVALVQVSDRDEGENAAVTCVVAGDVPFQLRQASETGSDSKKKYFLQTTTPLDYEKVKDYTIEIVAVDSGNPPLSSTNSLKVQVVDVNDNAPVFTQSVTEVAFPENNKPGEVIAEITASDADSGSNAELVYSLEPEPAAKGLFTISPETGEIQVKTSLDREQRESYELKVVAADRGSPSLQGTATVLVNVLDCNDNDPKFMLSGYNFSVMENMPALSPVGMVTVIDGDKGENAQVQLSVEQDNGDFVIQNGTGTILSSLSFDREQQSTYTFQLKAVDGGVPPRSAYVGVTINVLDENDNAPYITAPSNTSHKLLTPQTRLGETVSQVAAEDFDSGVNAELIYSIAGGNPYGLFQIGSHSGAITLEKEIERRHHGLHRLVVKVSDRGKPPRYGTALVHLYVNETLANRTLLETLLGHSLDTPLDIDIAGDPEYERSKQRGN
B1 was tested, and the Kd [16] was 1200 nM and the “stoichiometry N” value [16] was 2.

B2: human pcdh9 full ectodomain (EC1–EC7) (domain or fragment)
chain: QELIYTIREELPENVPIGNIPKDLNISHINAATGTSASLVYRLVSKAGDAPLVKVSSSTGEIFTTSNRIDREKLCAGASYAEENECFFELEVVILPNDFFRLIKIKIIVKDTNDNAPMFPSPVINISIPENTLINSRFPIPSATDPDTGFNGVQHYELLNGQSVFGLDIVETPEGEKWPQLIVQQNLDREQKDTYVMKIKVEDGGTPQKSSTAILQVTVSDVNDNRPVFKEGQVEVHIPENAPVGTSVIQLHATDADIGSNAEIRYIFGAQVAPATKRLFALNNTTGLITVQRSLDREETAIHKVTVLASDGSSTPARATVTINVTDVNDNPPNIDLRYIISPINGTVYLSEKDPVNTKIALITVSDKDTDVNGKVICFIEREVPFHLKAVYDNQYLLETSSLLDYEGTKEFSFKIVASDSGKPSLNQTALVRVKLEDENDNPPIFNQPVIELSVSENNRRGLYLTTISATDEDSGKNADIVYQLGPNASFFDLDRKTGVLTASRVFDREEQERFIFTVTARDNGTPPLQSQAAVIVTVLDENDNSPKFTHNHFQFFVSENLPKYSTVGVITVTDADAGENKAVTLSILNDNDNFVLDPYSGVIKSNVSFDREQQSSYTFDVKATDGGQPPRSSTAKVTINVMDVNDNSPVVISPPSNTSFKLVPLSAIPGSVVAEVFAVDVDTGMNAELKYTIVSGNNKGLFRIDPVTGNITLEEKPAPTDVGLHRLVVNISDLGYPKSLHTLVLVFLYVNDTAGNASYIYDLIRRTMETPLDRNIGDSSQPYQNEDYLT
For B2, the Kd [16] was 2030 nM and the “stoichiometry N” value [16] was 2.

B3: human pcdh19 full ectodomain (EC1–EC6) (domain or fragment)
chain: LINLKYSVEEEQRAGTVIANVAKDAREAGFALDPRQASAFRVVSNSAPHLVDINPSSGLLVTKQKIDRDLLCRQSPKCIISLEVMSSSMEICVIKVEIKDLNDNAPSFPAAQIELEISEAASPGTRIPLDSAYDPDSGSFGVQTYELTPNELFGLEIKTRGDGSRFAELVVEKSLDRETQSHYSFRITALDGGDPPRLGTVGLSIKVTDSNDNNPVFSESTYAVSVPENSPPNTPVIRLNASDPDEGTNGQVVYSFYGYVNDRTRELFQIDPHSGLVTVTGALDYEEGHVYELDVQAKDLGPNSIPAHCKVTVSVLDTNDNPPVINLLSVNSELVEVSESAPPGYVIALVRVSDRDSGLNGRVQCRLLGNVPFRLQEYESFSTILVDGRLDREQHDQYNLTIQARDGGVPMLQSAKSFTVLITDENDNHPHFSKPYYQVIVQENNTPGAYLLSVSARDPDLGLNGSVSYQIVPSQVRDMPVFTYVSINPNSGDIYALRSFNHEQTKAFEFKVLAKDGGLPSLQSNATVRVIILDVNDNTPVITAPPLINGTAEVYIPRNSGIGYLVTVVKAEDYDEGENGRVTYDMTEGDRGFFEIDQVNGEVRTTRTFGESSKSSYELIVVAHDHGKTSLSASALVLIYLSPALDAQESMGSVNLS
B3 was tested, and the Kd [16] was 480 nM and the “stoichiometry N” value [16] was 2.

B4: human pcdh1 EC1–EC4 fragment (domain or fragment)
chain: TRVVYKVPEEQPPNTLIGSLAADYGFPDVGHLYKLEVGAPYLRVDGKTGDIFTTETSIDREGLRECQNQLPGDPCILEFEVSITDLVQNGSPRLLEGQIEVQDINDNTPNFASPVITLAIPENTNIGSLFPIPLASDRDAGPNGVASYELQAGPEAQELFGLQVAEDQEEKQPQLIVMGNLDRERWDSYDLTIKVQDGGSPPRASSALLRVTVLDTNDNAPKFERPSYEAELSENSPIGHSVIQVKANDSDQGANAEIEYTFHQAPEVVRRLLRLDRNTGLITVQGPVDREDLSTLRFSVLAKDRGTNPKSARAQVVVTVKDMNDNAPTIEIRGIGLVTHQDGMANISEDVAEETAVALVQVSDRDEGENAAVTCVVAGDVPFQLRQASETGSDSKKKYFLQTTTPLDYEKVKDYTIEIVAVDSGNPPLSSTNSLKVQVVD
B4 was tested, and the Kd [16] was 530 nM and the “stoichiometry N” value [16] was 2.
